B1: MYT1360 (antibody, V domains shown)
VH: QVQLVQSGAEVKKPGASVKVSCKASGYTFTNYDINWVRQAPGQGLEWIGWIYPGDGSTKYNEKFHAKATLTADTSTSTAYMELRSLRSDDTAVYYCASGYEDAMDYWGQGTTVTVSS
VL: DIQMTQSPSSLSASVGDRVTINCKASQDINSYLSWFQQKPGKAPKTLIYRANRLVDGVPSRFSGSGSGQDYTLTISSLQPEDFATYYCLQYDEFPLTFGGGTKVEIK
notes: IgG; vadastuximab VH variant #26 (K65H)
B2: MYT1365 (antibody, V domains shown)
VH: QVQLVQSGAEVKKPGASVKVSCKASGYTFTNYDINWVRQAPGQGLEWIGWIYPGDGSTKYNEKFKAKATLTADTSTSTAYMELRSLRSDDTAVYYCASGHEDAMDYWGQGTTVTVSS
VL: DIQMTQSPSSLSASVGDRVTINCKASQDINSYLSWFQQKPGKAPKTLIYRANRLVDGVPSRFSGSGSGQDYTLTISSLQPEDFATYYCLQYDEFPLTFGGGTKVEIK
notes: IgG; vadastuximab VH variant #31 (Y100H)
B3: MYT1366 (antibody, V domains shown)
VH: QVQLVQSGAEVKKPGASVKVSCKASGYTFTNYDINWVRQAPGQGLEWIGWIYPGDGSTKYNEKFKAKATLTADTSTSTAYMELRSLRSDDTAVYYCASGYHDAMDYWGQGTTVTVSS
VL: DIQMTQSPSSLSASVGDRVTINCKASQDINSYLSWFQQKPGKAPKTLIYRANRLVDGVPSRFSGSGSGQDYTLTISSLQPEDFATYYCLQYDEFPLTFGGGTKVEIK
notes: IgG; vadastuximab VH variant #32 (E101H)
B4: MYT2649 (antibody, V domains shown)
VH: QVQLVQSGAEVKKPGASVKVSCKASGYTHHNYDINWVRQAPGQGLEWIGWIYPGDGSTKYNEKFKAKATLTADTSTSTAYMELRSLRSDDTAVYYCASGYEDAMDYWGQGTTVTVSS
VL: DIQMTQSPSSLSASVGDRVTINCKASQDINSYLSWFQQKPGKAPKTLIYRANRLVDGVPSRFSGSGSGQDYTLTISSLQPEDFATYYCLQYDEFPLTFGGGTKVEIK
notes: IgG; vadastuximab VH combination #1 (F29H+T30H)
B5: MYT2654 (antibody, V domains shown)
VH: QVQLVQSGAEVKKPGASVKVSCKASGYTFTNYDINWVRQAPGQGLEWIGWIYPGDGSTKYNEKFKAKATLTADTSTSTAYMELRSLRSDDTAVYYCASGYEDAMDYWGQGTTVTVSS
VL: DIQMTQSPSSLSASVGDRVTINCKHSQDINSYLSWFQQKPGKAPKTLIYRANRLVDGVPSRFSGSGSGQDYTLTISSLQPEDFATYYCLQYDEFPLTFGGGTKVEIK
notes: IgG; vadastuximab VL variant #2 (A25H)
B6: MYT2656 (antibody, V domains shown)
VH: QVQLVQSGAEVKKPGASVKVSCKASGYTFTNYDINWVRQAPGQGLEWIGWIYPGDGSTKYNEKFKAKATLTADTSTSTAYMELRSLRSDDTAVYYCASGYEDAMDYWGQGTTVTVSS
VL: DIQMTQSPSSLSASVGDRVTINCKASHDINSYLSWFQQKPGKAPKTLIYRANRLVDGVPSRFSGSGSGQDYTLTISSLQPEDFATYYCLQYDEFPLTFGGGTKVEIK
notes: IgG; vadastuximab VL variant #4 (Q27H)
B7: MYT2655 (antibody, V domains shown)
VH: QVQLVQSGAEVKKPGASVKVSCKASGYTFTNYDINWVRQAPGQGLEWIGWIYPGDGSTKYNEKFKAKATLTADTSTSTAYMELRSLRSDDTAVYYCASGYEDAMDYWGQGTTVTVSS
VL: DIQMTQSPSSLSASVGDRVTINCKAHQDINSYLSWFQQKPGKAPKTLIYRANRLVDGVPSRFSGSGSGQDYTLTISSLQPEDFATYYCLQYDEFPLTFGGGTKVEIK
notes: IgG; vadastuximab VL variant #3 (S26H)
B8: MYT2651 (antibody, V domains shown)
VH: QVQLVQSGAEVKKPGASVKVSCKASGYTFHNYDINWVRQAPGQGLEWIGWIYPGDGSTKYNEKFKAKATLTADTSTSTAYMELRSLRSDDTAVYYCASGYEDAMHYWGQGTTVTVSS
VL: DIQMTQSPSSLSASVGDRVTINCKASQDINSYLSWFQQKPGKAPKTLIYRANRLVDGVPSRFSGSGSGQDYTLTISSLQPEDFATYYCLQYDEFPLTFGGGTKVEIK
notes: IgG; vadastuximab VH combination #3 (T30H+D105H)
B9: MYT1363 (antibody, V domains shown)
VH: QVQLVQSGAEVKKPGASVKVSCKASGYTFTNYDINWVRQAPGQGLEWIGWIYPGDGSTKYNEKFKAKATLTADTSTSTAYMELRSLRSDDTAVYYCAHGYEDAMDYWGQGTTVTVSS
VL: DIQMTQSPSSLSASVGDRVTINCKASQDINSYLSWFQQKPGKAPKTLIYRANRLVDGVPSRFSGSGSGQDYTLTISSLQPEDFATYYCLQYDEFPLTFGGGTKVEIK
notes: IgG; vadastuximab VH variant #29 (S98H)
B10: MYT2652 (antibody, V domains shown)
VH: QVQLVQSGAEVKKPGASVKVSCKASGYTHHNYDINWVRQAPGQGLEWIGWIYPGDGSTKYNEKFKAKATLTADTSTSTAYMELRSLRSDDTAVYYCASGYEDAMHYWGQGTTVTVSS
VL: DIQMTQSPSSLSASVGDRVTINCKASQDINSYLSWFQQKPGKAPKTLIYRANRLVDGVPSRFSGSGSGQDYTLTISSLQPEDFATYYCLQYDEFPLTFGGGTKVEIK
notes: IgG; vadastuximab VH combination #4 (F29H+T30H+D105H)
B11: MYT1361 (antibody, V domains shown)
VH: QVQLVQSGAEVKKPGASVKVSCKASGYTFTNYDINWVRQAPGQGLEWIGWIYPGDGSTKYNEKFKHKATLTADTSTSTAYMELRSLRSDDTAVYYCASGYEDAMDYWGQGTTVTVSS
VL: DIQMTQSPSSLSASVGDRVTINCKASQDINSYLSWFQQKPGKAPKTLIYRANRLVDGVPSRFSGSGSGQDYTLTISSLQPEDFATYYCLQYDEFPLTFGGGTKVEIK
notes: IgG; vadastuximab VH variant #27 (A66H)
B12: MYT2650 (antibody, V domains shown)
VH: QVQLVQSGAEVKKPGASVKVSCKASGYTHTNYDINWVRQAPGQGLEWIGWIYPGDGSTKYNEKFKAKATLTADTSTSTAYMELRSLRSDDTAVYYCASGYEDAMHYWGQGTTVTVSS
VL: DIQMTQSPSSLSASVGDRVTINCKASQDINSYLSWFQQKPGKAPKTLIYRANRLVDGVPSRFSGSGSGQDYTLTISSLQPEDFATYYCLQYDEFPLTFGGGTKVEIK
notes: IgG; vadastuximab VH combination #2 (F29H+D105H)
B13: MYT2653 (antibody, V domains shown)
VH: QVQLVQSGAEVKKPGASVKVSCKASGYTFTNYDINWVRQAPGQGLEWIGWIYPGDGSTKYNEKFKAKATLTADTSTSTAYMELRSLRSDDTAVYYCASGYEDAMDYWGQGTTVTVSS
VL: DIQMTQSPSSLSASVGDRVTINCHASQDINSYLSWFQQKPGKAPKTLIYRANRLVDGVPSRFSGSGSGQDYTLTISSLQPEDFATYYCLQYDEFPLTFGGGTKVEIK
notes: IgG; vadastuximab VL variant #1 (K24H)
B14: MYT2657 (antibody, V domains shown)
VH: QVQLVQSGAEVKKPGASVKVSCKASGYTFTNYDINWVRQAPGQGLEWIGWIYPGDGSTKYNEKFKAKATLTADTSTSTAYMELRSLRSDDTAVYYCASGYEDAMDYWGQGTTVTVSS
VL: DIQMTQSPSSLSASVGDRVTINCKASQHINSYLSWFQQKPGKAPKTLIYRANRLVDGVPSRFSGSGSGQDYTLTISSLQPEDFATYYCLQYDEFPLTFGGGTKVEIK
notes: IgG; vadastuximab VL variant #5 (D28H)
B15: MYT1371 (antibody, V domains shown)
VH: QVQLVQSGAEVKKPGASVKVSCKASGYTFTNYDINWVRQAPGQGLEWIGWIYPGDGSTKYNEKFKAKATLTADTSTSTAYMELRSLRSDDTAVYYCASGYEDAMDHWGQGTTVTVSS
VL: DIQMTQSPSSLSASVGDRVTINCKASQDINSYLSWFQQKPGKAPKTLIYRANRLVDGVPSRFSGSGSGQDYTLTISSLQPEDFATYYCLQYDEFPLTFGGGTKVEIK
notes: IgG; vadastuximab VH variant #37 (Y106H)
B16: MYT1370 (antibody, V domains shown)
VH: QVQLVQSGAEVKKPGASVKVSCKASGYTFTNYDINWVRQAPGQGLEWIGWIYPGDGSTKYNEKFKAKATLTADTSTSTAYMELRSLRSDDTAVYYCASGYEDAMHYWGQGTTVTVSS
VL: DIQMTQSPSSLSASVGDRVTINCKASQDINSYLSWFQQKPGKAPKTLIYRANRLVDGVPSRFSGSGSGQDYTLTISSLQPEDFATYYCLQYDEFPLTFGGGTKVEIK
notes: IgG; vadastuximab VH variant #36 (D105H)

Each binder was assayed against CD33 (Sino Biological, Cat #12238-H08H) (UniProt P20138 18-259) (assay: BLI, IgG captured on anti-human Fc sensor, 50 nM CD33, pH 7.4 vs pH 5.4).
Sequence of CD33 (Sino Biological, Cat #12238-H08H) (P20138 18-259 limits assumed): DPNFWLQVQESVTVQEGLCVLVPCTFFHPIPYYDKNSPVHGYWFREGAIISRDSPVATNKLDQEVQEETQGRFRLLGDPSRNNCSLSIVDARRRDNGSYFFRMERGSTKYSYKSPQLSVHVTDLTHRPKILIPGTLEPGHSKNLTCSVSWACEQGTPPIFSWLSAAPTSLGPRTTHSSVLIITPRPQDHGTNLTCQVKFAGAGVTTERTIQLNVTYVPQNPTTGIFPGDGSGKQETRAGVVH
B1: binds. B2: binds. B3: binds. B4: binds. B5: binds. B6: binds. B7: binds. B8: binds. B9: binds. B10: binds. B11: binds. B12: binds. B13: binds. B14: binds. B15: binds. B16: binds.

From patent US20220324969A1 (MYTHIC THERAPEUTICS, published 2022)
